Test results as given in PMC7235047.
Changes are numbered by the printed parent chain. Numbers in names are those of the source. Each block holds one binder with its values, some of them ahead of it.

Target: γH2AX, P16104
Assay: proximity ligation assay (PLA)
Conditions: chain shown with the change, U2OS cells transfected with GFP-RNF168 wildtype and mutants, antibodies against GFP and γH2AX, 75 (wildtype), parent: est. 43, read off a plot

- response (n = 53 cells (R57D/Δ143-144)): 11
B1: GFP-RNF168 wildtype, Q8IYW5 R57D; E143del; E144del (protein)
chain: MALPKDAIPSLSECQCGICMEILVEPVTLPCNHTLCKPCFQSTVEKASLCCPFCRRDVSSWTRYHTRRNSLVNVELWTIIQKHYPRECKLRASGQESEEVADDYQPVRLLSKPGELRREYEEEISKVAAERRASEEEENKASYIQRLLAEEEEEEKRQAEKRRRAMEEQLKSDEELARKLSIDINNFCEGSISASPLNSRKSDPVTPKSEKKSKNKQRNTGDIQKYLTPKSQFGSASHSEAVQEVRKDSVSKDIDSSDRKSPTGQDTEIEDMPTLSPQISLGVGEQGADSSIESPMPWLCACGAEWYHEGNVKTRPSNHGKELCVLSHERPKTRVPYSKETAVMPCGRTESGCAPTSGVTQTNGNNTGETENEESCLLISKEISKRKNQESSFEAVKDPCFSAKRRKVSPESSPDQEETEINFTQKLIDLEHLLFERHKQEEQDRLLALQLQKEVDKEQMVPNRQKGSPDEYHLRATSSPPDKVLNGQRKNPKDGNFKRQTHTKHPTPERGSRDKNRQVSLKMQLKQSVNRRKMPNSTRDHCKVSKSAHSLQPSISQKSVFQMFQRCTK

- response (n = 74 cells (Δ143-144)): 34
B2: GFP-RNF168 wildtype, Q8IYW5 E143del; E144del (protein)
chain: B1 chain with D57R
